The values below come from patent US20240101668A1 (WUGEN, published 2024).

The target in test [1] is T1, huCD33-R69-His recombinant protein (human, UniProt P20138 18-259).
T1 construct: extracellular domain
As to the kind of experiment: BLI. Background: Biolayer interferometry detects binding as a change in optical thickness at a sensor tip.

Test [2] concerns the target T2, huCD33-G69-Fc recombinant protein (human, UniProt P20138 18-259).
T2 construct: extracellular domain; also called CD33 R69G
As to the kind of experiment: BLI.

Test [3] concerns the target T3, huCD33-R69 stably expressed on Jurkat cells (human, UniProt P20138 18-364).
T3 construct: whole, on cells; >200,000 receptors per cell; also called CD33 WT; CD33^ARG69
Kind of test: FACS on cells.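 Further: fixed Jurkat cells bearing either CD33 variant, barcoded by dye, exposed to myc-tagged scFv periplasmic extracts, detected with anti-myc PE antibody and read by flow cytometry.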
Method: (§1) Jurkat cells were engineered to stably express either the huCD33-R69 or huCD33-G69 variant at >200,000 receptors per cell. Parental, huCD33-R69, and huCD33-G69 Jurkat cell lines were stained with differing levels of CellTrace Violet Cell Proliferation Kit (ThermoFisher, cat. #C34557) to barcode each cell line. Barcoded Jurkat cell lines were fixed with paraformaldehyde and incubated with myc-labeled scFv periplasmic extracts and a secondary anti-myc PE-conjugated monoclonal antibody. Appropriate positive and negative controls were used. Stained cells were analyzed by flow cytometry (CytoFLEX, Beckman Coulter, Inc.) and binding was assessed by change in PE mean fluorescence intensity (MFI) of the barcoded cell populations.

The target of test [4] is T4, huCD33-G69 stably expressed on Jurkat cells (human, UniProt P20138 18-364).
T4 construct: whole, on cells; >200,000 receptors per cell; also called CD33 Mutant; CD33 R69G
As to the kind of experiment: FACS on cells.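 Further: fixed Jurkat cells bearing either CD33 variant, barcoded by dye, exposed to myc-tagged scFv periplasmic extracts, detected with anti-myc PE antibody and read by flow cytometry.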
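Wherever result is given: scFvs from periplasmic extracts captured on biosensors via anti-V5 antibody, exposed to recombinant huCD33 variants for 2 min, 5 min dissociation, scored as binding, no binding or ambiguous.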
Method: as §1

T4 sequence (P20138 18-364 R69G): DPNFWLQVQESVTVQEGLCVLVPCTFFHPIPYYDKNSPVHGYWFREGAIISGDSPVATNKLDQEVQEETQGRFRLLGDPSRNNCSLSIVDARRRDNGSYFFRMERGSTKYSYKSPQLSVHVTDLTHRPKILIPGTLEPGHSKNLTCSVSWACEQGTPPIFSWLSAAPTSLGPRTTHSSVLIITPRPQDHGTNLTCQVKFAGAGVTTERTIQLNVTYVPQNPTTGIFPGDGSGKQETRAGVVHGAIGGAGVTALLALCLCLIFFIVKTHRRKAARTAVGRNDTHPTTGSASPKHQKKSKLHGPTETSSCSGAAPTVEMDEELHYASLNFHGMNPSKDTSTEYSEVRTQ
T1 sequence (P20138 18-259): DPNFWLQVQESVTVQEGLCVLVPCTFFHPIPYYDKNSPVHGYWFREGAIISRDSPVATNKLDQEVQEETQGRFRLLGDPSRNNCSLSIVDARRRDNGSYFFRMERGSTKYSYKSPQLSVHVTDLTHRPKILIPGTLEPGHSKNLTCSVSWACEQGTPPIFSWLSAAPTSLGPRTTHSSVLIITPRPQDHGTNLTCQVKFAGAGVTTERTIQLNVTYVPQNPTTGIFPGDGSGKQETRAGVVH
T2 sequence (P20138 18-259 R69G): as the sequence (P20138 18-259) above, with R52G counted along it
T3 sequence (P20138 18-364): as the sequence (P20138 18-364 R69G) above, with G52R counted along it

B1: Polypeptide No. 40 (scFv, V domains shown)
VH: QVQLVQSGAEVKKPGASVKVSCKASGYTFTDYHMHWVRQAPGQGLEWMGWMSPNSGNTGYAQNFQGRVTMTRDTSTSTVYMELSSLRSEDTAVYYCARADYYGSDYVKFDYWGQGTLVTVSS
VL: DIQMTQSPSSLSASVGDRVTITCRVSQGISSYLNWYQQKPGKAPKLLIYEASTLESGVPSRFSGSGSGTDFTLTISSLQPEDFATYYCQQGYSTPPTFGQGTKVEIKR
notes: scFv
For the molecule B1, the binding result in test [1] is “no binding”; in test [2], “binds”. The “geometric mean MFI fold change over Jurkat parental” value (“geometric mean MFI fold change” below) in test [3] was less than 2 fold; in test [4], 10 to 30 fold.

B2: Polypeptide No. 39 (scFv, V domains shown)
VH: EVQLLESGGGLVQPGGSLRLSCAASGFTFRNYGMGWVRQAPGKGLEWVSAISGSGGSTYYADSVKGRFTISRDNSKNTLYLQMNSLRAEDTAVYYCARVKFYGMDVWGQGTTVTVSS
VL: DIQMTQSPSSLSASVGDRVTITCRASQGISNDLAWYQQKPGKAPKLLIYGASNLETGVPSRFSGSGSGTDFTLTISSLQPEDFATYYCQQANSFPFTFGPGTKVDIKR
notes: scFv
Consider B2, for which the binding result in test [1] is reported as “no binding”; in test [2] it was “binds”. Moreover, the figures for the “geometric mean MFI fold change” value in test [3] and in test [4] were less than 2 fold and 10 to 30 fold, respectively.

B3: Polypeptide No. 41 (scFv, V domains shown)
VH: QVQLVQSGAEVKKPGASVKVSCKASGYTFPNYGISWVRQAPGQGLEWMGWINPNSGGTKYAQRFQGRVTMTRDTSTSTVYMELSSLRSEDTAVYYCARDRDILTGYYHFDYWGQGTLVTVSS
VL: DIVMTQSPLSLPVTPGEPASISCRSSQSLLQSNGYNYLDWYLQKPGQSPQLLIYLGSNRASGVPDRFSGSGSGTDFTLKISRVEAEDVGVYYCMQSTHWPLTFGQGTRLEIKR
notes: scFv
Regarding B3, the binding result in test [1] is reported as “no binding”; in test [2], “binds”. Also, the “geometric mean MFI fold change” value in test [3] is less than 2 fold; in test [4], 2 to 10 fold.

B4: Polypeptide No. 36 (scFv, V domains shown)
VH: QVQLVQSGAEVKKPGASVKVSCKASGGTFSSYAISWVRQAPGQGLEWLGIISPSGRSAGYGRKFQGRVTMTRDTSTSTVYMELSSLRSEDTAVYYCARTDYGGHKWYFDLWGRGTLVTVSS
VL: DIQMTQSPSSLSASVGDRVTITCQASQGINNYLNWYQQKPGKAPKLLIYAASTLQRGVPSRFSGSGSGTDFTLTISSLQPEDFATYYCQQSYQTPLTFGGGTKVEIKR
notes: scFv
For the molecule B4, the binding result was “no binding” in test [1] and “binds” in test [2]. Moreover, the “geometric mean MFI fold change” value in test [3] is less than 2 fold; in test [4], 2 to 10 fold.

B5: Polypeptide No. 42 (scFv, V domains shown)
VH: QVQLVQSGAEVKKPGASVKVSCKASGYTFTDYFMHWVRQAPGQGLEWMGWINPNSGNTGYAQKFQGRVTMTRDTSTSTVYMELSSLRSEDTAVYYCARLNDYGDYGGPATLDYWGQGTLVTVSS
VL: DIQMTQSPSSLSASVGDRVTITCRASQGISNNLNWYQQKPGKAPKLLIYAASSLQSGVPSRFSGSGSGTDFTLTISSLQPEDFATYYCQQSYSTPPTFGQGTKLEIKR
notes: scFv
On to B5, for which the figures for the binding result in test [1] and in test [2] were “no binding” and “binds”, respectively. Also, the “geometric mean MFI fold change” value in test [3] is less than 2 fold; in test [4], 10 to 30 fold.
